One experiment has as its system VWF-platelet interaction. Briefly: Platelet-VWF adhesion on collagen III in stenotic microfluidic channels (SRG versus constant shear). It counts as cell-based, human. From the text:
In-house designed PDMS microfluidic chips (FIG. 1A) contained channels of 52 µm height with a footprint of 300 µm x 46 mm (used in FIG. 1) or 300 µm x 17 mm. Selected channels incorporated a semi-circular stenotic section of various lengths (600 µm, 1000 µm or 2000 µm diameter), creating 80% lumen reduction. Chips were manufactured as previously reported (Westein et al. Proceedings of the National Academy of Sciences of the United States of America. 2013 Jan 22;110(4):1357-62). The produced PDMS chips were sealed with cover slips by hydrophobic interaction and coated with collagen by perfusion of collagen solution followed by static incubation at RT for at least 1 hr. Channels were rinsed with PBS and blocked with 2% BSA. Wall shear rates of the input flow for these microchannels were approximated from volumetric flow rates by using the equation, γ = 6Q/wh2. Herein, γ is the wall shear rate (s^-1), Q the volumetric flow rate (mls^-1), w the channel with (cm) and h the channel height (cm).
Citrated whole blood was incubated with DiOC6 (0.5 µg ml^-1) (Sigma-Aldrich Co, St. Louis, MO, USA) and drawn through microfluidic channels by a programmable syringe pump (Legato 130, KD Scientific, USA). Time-lapse z-stack images of platelet deposition were captured in multiple track, resonant scanning mode, using a Nikon A1R confocal microscope system. Platelet deposition was recorded over time (2 frames per minute) for up to 20 minutes and quantified in ImageJ using a Z-projection of the acquired signal.
For experiments measuring rolling velocities, anti αllbβ3 antibody (abciximab; 20 µg ml^-1)-treated whole blood containing 0.5 µg ml^-1 DiOC6 was drawn over a collagen type III-coated surface. Where indicated, blood was incubated with 30 µM aspirin (Sigma Aldrich, USA) and 300 µM 2-MeSAMP (Sigma-Aldrich Co, St. Louis, MO, USA) prior to blood perfusion. 10 second video clips of rolling platelets were recorded in the green fluorescent channel using an Olympus IX81 microscope system. Platelet rolling velocities were calculated using Diatrack v3.04 large scale particle tracking software (Vallotton et al. Microsc Microanal. 2013 Apr;19(2):451-60).

For experiment [1], the system named is VWF-GPIb binding (plasma VWF, isolated platelets). Nature of the experiment: Ristocetin-induced platelet agglutination test (RIPA). The class given is cell-based, human. As to the method: Platelet-poor plasma (PPP; source of plasma VWF) was prepared by centrifugation of citrated whole blood at 300 × g for 10 min to obtain platelet rich plasma (PRP) and further centrifugation of the PRP fraction at 1700 × g for 7 min. Isolated platelets (3 × 10^8/ml) suspended in platelet wash buffer (4.3 mM K2HPO4, 4.3 mM Na2HPO4, 24.3 mM NaH2PO4, 113 mM NaCl, 5.5 mM D-glu cose, and 10 mM theophylline, pH 6.5) were centrifuged at 1500 × g for 7 min. The washed platelets were subsequently resuspended at the same concentration in modified Tyrode’s buffer (10 mM Hepes, 12 mM NaHCO3, 137 mM NaCl, 2.7 mM KCI and 5 mM glucose, pH 7.3) containing calcium (1 mM), magnesium (1 mM) and apyrase (0.02 U ml^-1) (ADPase activity). Isolated platelets (150, 300 µL at 3 × 10^8/ml) and platelet poor plasma (50 µl) were incubated with 2, 2.5, 4, 5, 40 and 80 µg ml^-1 scFv A1 and the corresponding concentration of control scFv, or Tyrode’s buffer was used to neutralise any other aggregation mechanisms beside the VWF A1-GPlbα interaction. Platelet agglutination in response to 0.75 mg mL^-1 ristocetin (Helena Biosciences, Gateshead, UK) and in the presence of the αIIbβ3 (GPIIb/IIIa) blocker Integrilin was performed for 10 min on an AggRam system from Helena Laboratories, USA

A further experiment addresses T1, VWF-full length (Homo sapiens, UniProt P04275).
T1 construct: coated with purified full length VWF or isolated A1 domain
Briefly: BLItz bio-layer interferometry, immobilized full length VWF. Particulars: BLItz binding assay. As to the method:
Bio-layer Interferometry was performed on a BIItz System (Pall Forte Bio, USA). Protein-A biosensors were hydrated for 30 minutes in PBS-Tween (0.05%) and loaded with VWF-A1 domain (130 µg ml^-1). Remaining binding sites were blocked by exposure to a polyclonal mouse IgG for 5 min. Sequential adhesion of scFv-A1 at 0, 20, 40 and 100 µg ml^-1 was monitored for 5 min per concentration. Real time visualisation of binding interactions between scFv A1 and full length VWF/A1 domain was performed using the BLItz Pro software. Traces were manually baseline aligned and corrected for control binding (0 µg ml^-1 scFv-A1).
A general note: Biolayer interferometry detects binding as a change in optical thickness at a sensor tip.

The target in another experiment is VWF (Homo sapiens, UniProt P04275). Briefly: VWF binding in the presence or absence of ristocetin (FIG. 7).

The source of these data is patent US20230227580A1, “ANTI-VWF ANTIBODIES AND USES THEREOF” (MONASH UNIVERSITY, priority 2020, published 2023).

B1: scFv A1: single chain antibody combining variable heavy chain of mAb CR1 with variable light chain of mAb CR2; VH SEQ ID NO: 11, VL SEQ ID NO: 10 (antibody, V domains shown)
VH: QVQLQQPGAELVRPGASVKLSCKASGYSFTNYWMSWVKQRPGQGLEWIGMIHPSDSDTRLNQKFKDKATLTVDKSSSTAYMQLSSPTSEDSAGLLLCKKFEGWLPVLLGPRHHSHSLLS
VL: DIELTQSPASLAVSLGQSYRASCKSVSTSGYSYMHWNQQKPGQPPRLLIYLVSNLESGVPARFSGSGSGTDFTLNIHPVEEEDAATYYCQHIRELTRSEGDQAEINR
modifications: scFv linker; Mouse
For the molecule B1, the Platelet adhesion in the experiment on VWF-platelet interaction (scFv A1 5 µg ml^-1, stenosis apex, control 3934±892, p=0.7932) was determined as 3805±783 platelets/mm^2; in the experiment with VWF-platelet interaction (scFv A1 5 µg ml^-1, stenosis outlet, control 5042±1167, p=0.07), 4475±1199 platelets/mm^2. Also, the Platelet-VWF adhesion in the experiment with VWF-platelet interaction (scFv A1 5 µg ml^-1, stenosis inlet, control 6187±1097, p=0.0013) was 5158±1032 platelets/mm^2. For the same molecule, the Platelet deposition with VWF-platelet interaction (scFv A1 5 µg ml^-1, straight section, constant shear, control 2047±232, p=0.0195) is 3096±690 platelets/mm^2. For the same molecule, the “Relative amount of VWF per platelet deposited on aggregates” value in the experiment on VWF-platelet interaction (scFv A1, areas of SRGs and constant shear) is reported as “not reduced”. For the same molecule, the Ristocetin-induced platelet agglutination entry in experiment [1] (plasma VWF preincubated with scFv A1 and ristocetin prior to platelet binding) is “minor inhibitory effect”. The “Ristocetin-induced agglutination of isolated platelets” value in experiment [1] (scFv A1 up to 80 µg ml^-1, ristocetin 0.75 mg ml^-1, plasma VWF present) is recorded as “did not result in delayed or reduced agglutination”. Also, the “Binding to immobilized VWF-full length” value in the experiment with VWF-full length is listed as “did not observe any binding”. Moreover, the “Mechanism of VWF binding (dependence on conformation)” value in the experiment with VWF is recorded as “conformational-dependent binding”.
